Measurements reported in the RNAGym collection of RNA variant scans (doi:10.1073/pnas.2313332121).
This sample holds only a part of the variants without activity.

B1: TPR 5TU (parent)
chain: GGAUCUUCUCGAUCUAACAAAAAAGACAAAUCUGCCACAAAGCUUGAGAGCAUCUUCGGAUGCAGAGGCGGCAGCCUUCGGUGGCGCGAUAGCGCCAACGUUCUCAACUAUGACACGCAAAACGCGUGCUCCGUUGAAUGGAGUUUAUCAUG

Variants of: B1
Assay: polymerase ribozyme fitness, log enrichment relative to wild type (log ratio); higher = more active; in vitro selection for triplet polymerase activity
In short: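 A heterodimeric triplet polymerase ribozyme had each of its subunits mutagenized by PCR into a library, which was transcribed. One round of in vitro selection, done in triplicate, annealed each library with a biotinylated primer, its partner subunit and triplets, then incubated it frozen at −7 °C before gel excision of extended constructs, streptavidin-bead capture and RT-PCR. Fitness is the logarithm of genotype enrichment relative to wild-type enrichment, based on Illumina sequencing of inputs and outputs and inverse-variance-weighted replicate averages. A base-2 logarithm is used, and genotypes were kept only with ≥10 input reads and ≥1 read per output.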

Variant	polymerase ribozyme fitness (log ratio)
C38U G68U G94A	≤ -4.2
A40C G59A C85A A89C	-2.83
C38U C54A U82C U134G	-3.4
A40C U55A	0.494
A37G A66U	≤ -4.2
A39C U55A C149U	-3.62
A39G G84A G136U	-4.02
A37G G58U A89G	-2.84
A40C G92U U135G	-2.96
A39C C54A G94A C123U U139A	≤ -4.2
A40C A60U G81C A138G C149A	≤ -4.2
C38A A41C U61A G94A C131A G141A U144G U151A	≤ -4.2
C38U A49G G92U C103U G124U	-1.7
A40C G50A A91G A147C U151A	≤ -4.2
A37U C75G C87G C93U U101C	≤ -4.2
A37G C96G	-1.89
A37C U55G G81A C87A A106C A107U G143U	≤ -4.2
A39U	-1.9
A39C	-1.87
A39G	-1.53
A40C G48A	-1.28
A40G C57G G58A G117C A119U	-1.96
A40C C54A G59C C87U	-2.96
A39U U56A C116U	-2.74

Variant	polymerase ribozyme fitness (log ratio)
A37U C95U A122G	-1.77
A39C G50A G86A G94U G133A	≤ -4.2
A39G G70C G92C U135G U145G U148A	≤ -4.2
A39C A49U G67A A121U	≤ -4.2
A39U A138C A150G	-4.1
A39G G46A U56A C93U C108A	≤ -4.2
A40C U44A U55A C57A C76A	≤ -4.2
C38U G58C G65A A119G A147C	-2.82
A39U C54U A60U C75G C79A U90A	≤ -4.2
A39G C69G C93U C103G C108U C116U A137C	≤ -4.2
A40C C57G C85A U102A	≤ -4.2
A37G G59C A147C	-2.8
A37G A49U C51U C85U G92A C96A A97G U144A U146G	≤ -4.2
A39U G59C U146G A150G	-3.66
C38A C57A G83A	-0.895
A37U A98U	-0.971
A40C A60G G62U G68A A97U G141A A142G	≤ -4.2
A39U C69U U82C C96U	-2.44
A37U G58C	-0.362
C38A U146G	-1.37
C38U C57U A106U U146G	-2.36
C38U U44C C54U G94A C131U U139A U144C	≤ -4.2
A37U A66U C76A U102A G141C	≤ -4.2
C38G G92A	-4.14

Variant	polymerase ribozyme fitness (log ratio)
A39U G50U U139G	-2.97
A37C G58A	0.575
A40G A41C	-1.36
A39U U56A G62C C85A C95G U101A C123G G143C	≤ -4.2
A39U U61C	-4.04
A37G A47G G92C	-3.05
A39U C99U U146G	-2.56
A39C C63A A119C	-4.05
A40G G58A	-0.952
A39G G42A G81U C87A G94U	≤ -4.2
A39G U55A A91C C108A U144C	≤ -4.2
A39C G86A G152U	≤ -4.2
A40G A49C U53A	≤ -4.2
C38A C93A C131G A150U	≤ -4.2
A40C G50C G80C A97U U134A U145G	≤ -4.2
A37U G65A A66U U77G G84A	≤ -4.2
A39U A49G G58A G65A U111G A150G	≤ -4.2
C38U G80U U134G A142C G152U	-3.64
A37G C114U	-2.87
A40C A52U U111C A119U U139G U151G	≤ -4.2
A40C G42A A52U G81C G84U A97C C118U	≤ -4.2
A40C U45A G48A A49C U55A G62C U77A C118A U134C A142G	≤ -4.2
C38A G58C A98G A120C A121U	-0.687
C38U A41U C51U G84A G143A	-3.06

Variant	polymerase ribozyme fitness (log ratio)
A37U C75A G84A C114U	≤ -4.2
C38U U55A C69G A115G A137G A142G	≤ -4.2
A40C G42U	≤ -4.2
A39U G94U A122U G143A A147C	≤ -4.2
A39U C87U G133U U135G	≤ -4.2
A39U A52C C57U G58C	-3
A37U G48C	-2.02
A39G U53C U77G A113C C116A	≤ -4.2
C38A C69G C93U U139A	≤ -4.2
A40G C75U C93U A97U	≤ -4.2
C38A U55C A66G G80A U90A U127C	≤ -4.2
A40C C76A	-2.59
A37U G84A C118U A122U	-1.57
A37G U55A A73G U111G	≤ -4.2
A39U A47G U78A A97U	≤ -4.2
A37C G81C C85G C116G U144G	-4.04
A37G C76U G80U C105U A122U	≤ -4.2
A40G C51U U56A U78A G83C	≤ -4.2
C38U U56A C63A G117C A121U	0.398
C38U C95A A120G G141C	-1.16
C38U U45G G68A G81U C87G A98G	≤ -4.2
C38U G86A A89C C95G G112C	≤ -4.2
A39G A60C G84A C87G C95G C118G U145G	≤ -4.2
A39C C96U	-2.7

Variant	polymerase ribozyme fitness (log ratio)
A40C A52U C57U G92C C95U C105U A106C U109C A138G	≤ -4.2
A40G A41G C63U C76A G83C G152U	≤ -4.2
C38A A89U C93A G128A	≤ -4.2
A40C G65A A73U A98U	≤ -4.2
A39C G48C G59U A60U A66G G71A C96U U101G U151A	≤ -4.2
A37U C38A G58C C85G C87G	≤ -4.2
A39U A89G	-2.99
C38U G65U G71U U90C C114U U135C U146A	≤ -4.2
C38A A52G C63A	-1.26
C38U A47G C51G C93U	-3.21
C38A C85U	-0.235
A40C C51G U61A C95G	≤ -4.2
A37G A52G C54A	-2.77
C38G C54G C79U G117A	≤ -4.2
A40G C85G	-3.63
A37G U56G	-1.45
A37G G92U	-2.01
A37U G80C A91C A150U	≤ -4.2
A39C C85U	-2.48
A39U C54U C76A A91C U139G	≤ -4.2
A37C G84U A120G	-2.19
A40C A47U A60U	-1.07
C38A G70C G126C	-3.53
A40G C54G G74A G83C C105G	≤ -4.2

Variant	polymerase ribozyme fitness (log ratio)
C38G C54U C57U U146C	-1.16
A39G U56G A66U G86U A107C	-3.99
A40G A60C C105G A138C A147U	≤ -4.2
C38U G62C	-2.41
C38U G81U C108A U139G	≤ -4.2
C38U C87U C103U	-0.308
A40C G42C G80U	≤ -4.2
A37G A40G A41G C76U C87U C93G C125G	≤ -4.2
C38A G84A	-1.23
C38U G68C G88A A147C	≤ -4.2
A40G C95U	-2.52
C38U U56A G68A C95A	≤ -4.2
A40C A89U C96U C114U G128C U145G	≤ -4.2
A40G G48A C125A	≤ -4.2
A40C A52C U53A A73U C76A G83C U102A	≤ -4.2
A39U A49U	-4.19
C38U A97G	-0.0867
A40C C69U A91U C96A A119G U134A A142U	≤ -4.2
A37U A89C U148A	≤ -4.2
C38U A91U	≤ -4.2
C38G C95A G141U	1.02
C38A C63A U90A G124U	≤ -4.2
A39U G80U	-3.44
A39U G86A U102G C103G A106C	≤ -4.2

Variant	polymerase ribozyme fitness (log ratio)
C38U C63A C103A	-1.77
C38U U101A C103G A121U U144G	-3.85
A40C A106U A138G	≤ -4.2
C38U C85U	-0.884
C38U C54A C99U C132U	-2.38
A39G G58A	-1.68
C38U G67A C69G G94A	≤ -4.2
A39G U56A G58U G141A	-1.28
A40C A150C	-3.94
A39C G83U	-2.83
A39C G48U G68C G80C C96U U101G A106U	≤ -4.2
A39C A49U C69U C85A C105U	≤ -4.2
C38A G80U C125U	-2.34
C38U G84U C123U	-0.916
A40G C87U A115G	-3.19
A40G C51A G83A C96U U101G	≤ -4.2
A40C A89U A137C	-3.94
A37U A41U A89G A115C A150U	≤ -4.2
A40C G42U C51G G67A C76A G86C A89U U127G	≤ -4.2
C38U C85U C131G	-3.56
A39G G81A C96G	-3.28
C38A A147C	-1.26
C38U C43U A73U C79A U90C U148G	≤ -4.2
